According to patent publication US20090054362:

Experiments:
[1] = target: HIV-1 Ba-L virus (envelope gp120) (HIV-1 Ba-L) (UniProt P03375); assay: cell_activity; settings: 2'-F C and U; neutralization in human PBMCs, p24 ELISA
[2] = target: gp120 (SU envelope glycoprotein) (HIV-1 Ba-L) (UniProt P03375); assay: EMSA; settings: 2'-F C and U, tRNA, room temp, also dose-dependent SPR

Sequence	IC50 [1] [nM]	Kd ([2]; 1x cHBS) [nM]	Kd ([2]; 1x cHBS (10 mM HEPES pH 7.4, 150 mM NaCl, 1 mM CaCl2, 1 mM MgCl2, 2.7 mM KCl)) [nM]
GGGAGACAAGACUAGACGCUCAAUGUGGGCCACGCCCGAUUUUACGCUUUUACCCGCACGCGAUUGGUUUGUUUCCC [B40t77]	2	31	–
GGGAGACAAGACUAGACGCUCAAUGUGGGCCACGCCCGAUUUUACGCUUUUACCCGCACGCGAUUGGUUUGUUUUCGACAUGAGACUCACAACAGUUCCCUUUAGUGAGGGUUAAUU [B40]	2	–	21
